Laboratory results from patent publication JP2014185312A (dated 2014).
No end group written: not given here.

Target: T1, Recombinant Human ErbB2/Fc Chimera (R&D Systems) (human, UniProt P04626 23-652)
T1 construct: Bought reagent, immobilised by amine coupling on a GLM sensor chip (about 3000 RU); also called HER2; not shown: Fc part (and any linker or tag) of the bought chimera; not described
Assay: SPR (ProteOn XPR36), ErbB2/Fc immobilised on GLM chip, conjugate as analyte, 1:1 Langmuir fit

binding result | Binder
binds | MARSGLGGKGSC (not fully specified (residue 12); also: labelled with ICG-Sulfo-OSu, position not given here, Tested as the PEG/ICG conjugate; also called pe−PEG40)
binds | MARSGLGGKGSC (not fully specified (residue 12); also: labelled with ICG-Sulfo-OSu, position not given here, Tested as the PEG/ICG conjugate; also called pe−PEG20)
